Assay results from patent publication US9073982B2, “Targets for regulation of angiogenesis” (The University of North Carolina at Chapel Hill, priority 2008, dated 2015).
“Also recorded” adds a separate entry of the source.

Assays:
C57BL/6 mice = test: Mouse MATRIGEL plug angiogenesis assay; format: in vivo
Procedure: The ability of mouse recombinant SFRP2 would stimulate angiogenesis in a mouse MATRIGEL plug angiogenesis assay was evaluated. Female C57BL/6 mice (8 weeks old) were injected s.c. with 0.5 ml of growth factor reduced basement membrane matrix (MATRIGEL) containing either mouse recombinant SFRP2 (800 ng/ml) with 30 U/ml heparin or PBS with 30 U/ml heparin for negative control. Seven days later the mice were sacrificed and the MATRIGEL plugs removed and evaluated for angiogenesis by hemoglobin concentration with the Drabkin's reagent.

[1] = test system: Human coronary artery endothelial cells (HCAEC); test: Hypoxia-induced endothelial cell apoptosis assay (caspase 3); format: cell-based; conditions: SFRP2 70 pM and 700 pM, 36 h hypoxia
Procedure: Human coronary artery endothelial cells (HCAEC) were used for apoptosis assays because apoptosis could not be induced in the MEC cells. HCAECs were grown in 10-cm dishes (Becton Dickinson, Franklin Lakes, N.J.) with endothelial cell basal medium-2 (EGM-2) BulletKit media (Clonetics, San Diego, Calif.) until 80% confluent. Medium was then replaced with optimal medium according to different assays. The hypoxic condition was created by incubating HCAECs in EGM-2 media without BulletKit growth factors at 37° C. in a hypoxia chamber with an atmosphere of 5% CO2/95% N2. The oxygen level in the chamber was controlled to 1.0%. Apoptosis was determined by measuring the activity of cleaved caspase 3 by using a caspase-specific fluorogenic substrate according to the protocol for the Caspase 3 Assay Kit (Sigma). HCAECs were lysed after treatment with concentrations of SFRP2 (70 pM and 700 pM) for 36 h under hypoxia. […] The enzyme-catalyzed release of 7-amino-4-methyl coumarin (AMC) was measured by a fluorescence microplate reader.
HCAEC were seeded onto a 96 well plate at 2,000 cells/well in EGM-2 with BulletKit growth supplements. […] Apoptosis was determined by measuring the activity of cleaved caspase 3 by using a caspase-specific fluorogenic substrate according to the protocol for the Apo-ONE® Homogeneous Caspase-3/7 Assay (Promega, Madison, Wis.). […]

NFATc3 = test: Western blot for nuclear NFATc3 in MEC cells; format: cell-based, mouse; conditions: SFRP2 700 pM
Procedure: To evaluate the role of the non-canonical Wnt/Ca^++ pathway in SFRP2 induced angiogenesis, nuclear dephosphorylated NFATc3 protein levels were compared in control and SFRP2-treated endothelial cells. MEC cells were plated in 12-well plates and allowed to attach overnight. The next day, the media was changed and added to the wells with and without SFRP2 (700 pM). Cells were incubated for 1, 2, 4, 8 and 16 hours, and the nuclear proteins were extracted by using NE-PER™ nuclear and cytoplasmic extraction reagent from PIERCE (Pierce Biotechnology) as described in the manufacturer's manual. The Western blot analysis was performed using standard methods, with primary antibody to the dephosphorylated (active) β-catenin antibody or NFATc3.

B1: SFRP2: mouse recombinant SFRP2 (US Biologicals), secreted frizzled-related protein 2 (protein)
chain: LFLFGQPDFSYKRSNCKPIPANLQLCHGIEYQNMRLPNLLGHETMKEVLEQAGAWIPLVMKQCHPDTKKFLCSLFAPVCLDDLDETIQPCHSLCVQVKDRCAPVMSAFGFPWPDMLECDRFPQDNDLCIPLASSDHLLPATEEAPKVCEACKTKNEDDNDIMETLCKNDFALKIKVKEITYINRDTKIILETKSKTIYKLNGVSERDLKKSVLWLKDSLQCTCEEMNDINAPYLVMGQKQGGELVITSVKRWQKGQREFKRISRSIRKLQC
C57BL/6 mice; SFRP2 800 ng/ml with heparin, s.c., seven days
  hemoglobin content of plugs, increase compared with the vehicle control: 3.3 fold
C57BL/6 mice; mouse, in vivo
  angiogenesis in the mouse MATRIGEL plug assay: induces angiogenesis
[1]
  hypoxia induced endothelial cell apoptosis (cleaved caspase 3 activity): protected against hypoxia induced endothelial cell apoptosis; also recorded: inhibits hypoxia-induced apoptosis
NFATc3
  nuclear NFATc3 level: increased at 30 minutes in the nuclear fraction
